Source: the Human Domainome abundance scans (Beltran et al. 2025)
± gives the uncertainty stated by the source.

B1: Dynamin-binding protein, residues 242 to 304; numbered along this chain, Q6XZF7 (parent)
chain: EEPGTYGVALYRFQALEPNELDFEVGDKIRILATLEDGWLEGSLKGRTGIFPYRFVKLCPDTR

Variants of: B1
Assay: abundance fitness (aPCA) (normalised: wild type 0, dead -1); higher = more abundant; growth selection in yeast, the domain comes from the species named
Details: Homo sapiens

| Variant | abundance fitness |
| --- | --- |
| EEPGTYGVALYRFQALEPNELDFEVGDKIRILATLEDGWGEGSLKGRTGIFPYRFVKLCPDTR | -0.383 ± 0.059 |
| EEPGTYGVALYRFQALEPNELDFEVGDKIRILATLEDGWMEGSLKGRTGIFPYRFVKLCPDTR | -0.074 ± 0.12 |
| EEPGTYGVALYRFQALEPNELDFEVGDKIRILATLEDGWNEGSLKGRTGIFPYRFVKLCPDTR | -0.784 ± 0.11 |
| EEPGTYGVALYRFQALEPNELDFEVGDKIRILATLEDGWAEGSLKGRTGIFPYRFVKLCPDTR | 0.18 ± 0.052 |
| EEPGTYGVALYRFQALEPNELDFEVGDKIRILATLEDGWIEGSLKGRTGIFPYRFVKLCPDTR | -0.244 ± 0.056 |
| EEPGTYGVALYRFQALEPNELDFEVGDKIRILATLEDGWLEGSLKGRTGIFPYRFVKLCPDTC | -0.06 ± 0.062 |
| EEPGTYGVALYRFQALEPNELDFEVGDKIRILATLEDGWLEGSLKGRTGIFPYRFVRLCPDTR | -0.041 ± 0.047 |
| EEPGTYGVALYRFQALEPNELKFEVGDKIRILATLEDGWLEGSLKGRTGIFPYRFVKLCPDTR | -0.062 ± 0.16 |
| EEPGTYGVALYRFQALEPNELVFEVGDKIRILATLEDGWLEGSLKGRTGIFPYRFVKLCPDTR | -0.682 ± 0.084 |
| EEPGTYGVALYRFQALEPNELNFEVGDKIRILATLEDGWLEGSLKGRTGIFPYRFVKLCPDTR | -0.04 ± 0.052 |
| EEPGTIGVALYRFQALEPNELDFEVGDKIRILATLEDGWLEGSLKGRTGIFPYRFVKLCPDTR | -0.123 ± 0.053 |
| EEPGTYGVALYRFQAHEPNELDFEVGDKIRILATLEDGWLEGSLKGRTGIFPYRFVKLCPDTR | 0.141 ± 0.074 |
| EEPGTYGVALYRFQALEPNELDFEVGDKIRILATLEDGWLEGSLKGRTGIFPYRFVKLCPPTR | -0.027 ± 0.061 |
| EVPGTYGVALYRFQALEPNELDFEVGDKIRILATLEDGWLEGSLKGRTGIFPYRFVKLCPDTR | -0.228 ± 0.058 |
| EEPGTYGVALYRFQALEPNELDFEVGDKIRILATLEDGWLSGSLKGRTGIFPYRFVKLCPDTR | -0.116 ± 0.05 |
| EEPGTYGVALYRFQALEPNELDFEVGDKIRILHTLEDGWLEGSLKGRTGIFPYRFVKLCPDTR | -0.021 ± 0.081 |
| EEPGTYGVALYRFQALEPNELDFEVGDKIRILLTLEDGWLEGSLKGRTGIFPYRFVKLCPDTR | -0.644 ± 0.16 |
| EEPGTYGVALYRFQALEPNELDFEVGDKIRILITLEDGWLEGSLKGRTGIFPYRFVKLCPDTR | -0.703 ± 0.13 |
| EEPGTYGVALYRFQALEPNELDFEVGDTIRILATLEDGWLEGSLKGRTGIFPYRFVKLCPDTR | -0.282 ± 0.08 |
| EEPGTYGVALYRFQALEPNELDFEVGDVIRILATLEDGWLEGSLKGRTGIFPYRFVKLCPDTR | -0.205 ± 0.056 |
| EEPGTYGVALYRFQALEPNELDFEVGDRIRILATLEDGWLEGSLKGRTGIFPYRFVKLCPDTR | -0.05 ± 0.053 |

| Variant | abundance fitness |
| --- | --- |
| EEPGTYGVALYRFLALEPNELDFEVGDKIRILATLEDGWLEGSLKGRTGIFPYRFVKLCPDTR | -0.265 ± 0.07 |
| EEPGTYGVALYRFQALEPNELDFEVGDKIRILATLEDGWLEGSLKGRTGIFPCRFVKLCPDTR | 0.203 ± 0.053 |
| EEPGTYGVALYRFQALEPNELDFEVGDKIRILATLEDGWLEGSLKGRTGIFPFRFVKLCPDTR | -0.079 ± 0.067 |
| EEPGTYGVALYRFQALEPNELDFEVGDKIRILATLEDGWLEGSLKGRTGIFPIRFVKLCPDTR | 0.048 ± 0.055 |
| EEPGTYGVALYRFQALEPNELDFEVGDKIRILATLEDGWLEGSLKGRTGIFPYPFVKLCPDTR | -0.525 ± 0.15 |
| EEPGTYGVALYRFQALEPNELDFEVGDKIRILATLEDGWLEGSLKGRTGIFPYWFVKLCPDTR | -0.292 ± 0.12 |
| EEPGTYGVALYRFQALEPNELDWEVGDKIRILATLEDGWLEGSLKGRTGIFPYRFVKLCPDTR | -0.63 ± 0.16 |
| EEPGTYGVALYRFQALEPNELDREVGDKIRILATLEDGWLEGSLKGRTGIFPYRFVKLCPDTR | -0.684 ± 0.095 |
| EEPGTYGVALYRFQALEPNELDCEVGDKIRILATLEDGWLEGSLKGRTGIFPYRFVKLCPDTR | -0.717 ± 0.09 |
| EEPGTYGVALYQFQALEPNELDFEVGDKIRILATLEDGWLEGSLKGRTGIFPYRFVKLCPDTR | -0.821 ± 0.35 |
| EEPGTYGVALYGFQALEPNELDFEVGDKIRILATLEDGWLEGSLKGRTGIFPYRFVKLCPDTR | -0.071 ± 0.051 |
| EEPGTYFVALYRFQALEPNELDFEVGDKIRILATLEDGWLEGSLKGRTGIFPYRFVKLCPDTR | -0.734 ± 0.092 |
| EEPGTYGVALYRFQALEPNELDFEVGDKIRILATLEDGWLEGSLKGRTGIFPYRFVKLTPDTR | -0.192 ± 0.085 |
| EEPGTYGVALYRFQALEPNELDFEVGDKIRILATLEDGWLEGSLKGRTGIFPYRFVKLHPDTR | -0.227 ± 0.1 |
| EEPGTYGVALYRFQALEPNELDFEVGDKIRILATLEDGWLEGSLKGRTGTFPYRFVKLCPDTR | -0.306 ± 0.082 |
| EEPGTYGVAAYRFQALEPNELDFEVGDKIRILATLEDGWLEGSLKGRTGIFPYRFVKLCPDTR | -0.761 ± 0.14 |
| EEPGTYGVADYRFQALEPNELDFEVGDKIRILATLEDGWLEGSLKGRTGIFPYRFVKLCPDTR | -0.679 ± 0.11 |
| EEPGTYGVALYRFQALEPNELDFENGDKIRILATLEDGWLEGSLKGRTGIFPYRFVKLCPDTR | -0.736 ± 0.1 |
| EEPGTYGVALYRFQALEPNELDFEIGDKIRILATLEDGWLEGSLKGRTGIFPYRFVKLCPDTR | -0.142 ± 0.063 |
| SEPGTYGVALYRFQALEPNELDFEVGDKIRILATLEDGWLEGSLKGRTGIFPYRFVKLCPDTR | -0.112 ± 0.068 |
| EEPGTYGVALDRFQALEPNELDFEVGDKIRILATLEDGWLEGSLKGRTGIFPYRFVKLCPDTR | -0.281 ± 0.067 |
